Data taken from patent publication US20030113892A1.
No end group written: not given here.

What was measured:
[1] = molecular target: rat brain synaptosomes (voltage-gated sodium channel, receptor site 3) (rat)
[2] = molecular target: rat brain synaptosomes (voltage-gated sodium channel, receptor site 3) (rat); test: cell-based or functional assay

Molecule: uctoxin (peptide)
- EC50 [1]: 60 nM
- enhancement of [3H] BTX binding to rat brain synaptosomes [2]: 2 fold

B1: birtoxin (peptide)
chain: ADVPGNYPLDKDGNTYKCFLLGGNEECLNVCKLHGVQYGYCYASKCWCEYLEDDKDVS
modifications: also: three disulfide bridges, pairings not given here
- EC50 [1]: 5 nM
- enhancement of [3H] BTX binding to rat brain synaptosomes [2]: 4.32 fold
